# Measurements taken from article PMC9002095 (2022).
# Tests used:
# human CD47 = human CD47 (human, UniProt Q08722 19-323); test: SPR
# BSA = BSA (bovine, UniProt P02769 25-607); test: ELISA
# BSA, sequence (P02769 25-607): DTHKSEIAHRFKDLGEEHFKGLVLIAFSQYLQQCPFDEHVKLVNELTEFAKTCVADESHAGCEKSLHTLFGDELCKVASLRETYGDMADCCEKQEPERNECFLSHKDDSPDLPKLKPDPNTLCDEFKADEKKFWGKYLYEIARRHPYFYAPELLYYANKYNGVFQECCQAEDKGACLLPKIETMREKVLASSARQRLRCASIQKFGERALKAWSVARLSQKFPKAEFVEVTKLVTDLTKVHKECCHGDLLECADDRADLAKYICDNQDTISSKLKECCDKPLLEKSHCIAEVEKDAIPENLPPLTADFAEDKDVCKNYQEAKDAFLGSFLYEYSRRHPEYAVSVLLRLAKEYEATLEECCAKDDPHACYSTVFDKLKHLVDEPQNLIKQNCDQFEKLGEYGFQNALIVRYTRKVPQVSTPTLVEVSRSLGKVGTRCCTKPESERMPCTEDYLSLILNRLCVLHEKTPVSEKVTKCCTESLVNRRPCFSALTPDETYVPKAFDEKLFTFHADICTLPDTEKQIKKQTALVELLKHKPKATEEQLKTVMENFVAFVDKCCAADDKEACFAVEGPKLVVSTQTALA
# human CD47, sequence (Q08722 19-323): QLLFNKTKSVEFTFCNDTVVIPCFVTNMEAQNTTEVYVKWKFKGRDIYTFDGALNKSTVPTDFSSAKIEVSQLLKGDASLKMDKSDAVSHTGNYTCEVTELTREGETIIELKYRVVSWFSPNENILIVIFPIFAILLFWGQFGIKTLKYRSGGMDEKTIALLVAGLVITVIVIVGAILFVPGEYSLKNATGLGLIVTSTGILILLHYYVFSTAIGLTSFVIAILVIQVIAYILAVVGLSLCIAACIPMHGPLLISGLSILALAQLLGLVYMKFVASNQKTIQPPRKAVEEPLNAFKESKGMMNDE
koff (human CD47) [s⁻¹],Kd (BSA) [nM],Binder
0.00958,56.8,"TKKTLRT–SIRPαFc conjugate (Fc fusion, free amino groups joined through Sulfo-SMCC to the cysteine of the peptide TKKTLRTC; one or two peptides on one SIRPαFc (MALDI-TOF-MS); sites not told | sulfhydryl of the C-terminal cysteine joined to the maleimide group of Sulfo-SMCC) chain 1: EEELQVIQPDKSVLVAAGETATLRCTATSLIPVGPIQWFRGAGPGRELIYNQKEGHFPRVTTVSDLTKRNNMDFSIRIGNITPADAGTYYCVKFRKGSPDDVEFKSG chain 2: TKKTLRTC"
0.00727,4.25,human SIRPαFc fusion protein (Fc fusion) EEELQVIQPDKSVLVAAGETATLRCTATSLIPVGPIQWFRGAGPGRELIYNQKEGHFPRVTTVSDLTKRNNMDFSIRIGNITPADAGTYYCVKFRKGSPDDVEFKSG
